Laboratory results reported in paper PMC4518712, “Regulation of the PI3K pathway through a p85α monomer–homodimer equilibrium” (eLife, 2015).
Values joined by “and” are separate entries in the source; they are usually repeats but may differ in a detail not shown here. Equal values may be shown once.

Experiments:
Fyn SH3 (Homo sapiens) = Fyn SH3 (Homo sapiens) (UniProt P06241); conditions: cited from earlier work
[1] = target: GST-ΔSH3 p85α (residues 86–742, comprising PR1 to cSH2); assay: ITC; MicroCal ITC200, 25°C, 10 mM sodium phosphate pH 7.5, 150 mM NaCl, 5 mM DTT; PR1 peptide injected into p85α SH3 (100 μM) in the cell, or SH3 (400 μM) in the syringe and GST-ΔSH3 p85α in the cell
class I PXXP peptide = conditions: cited from earlier work
[2] = target: p85α SH3-PR1-BH-PR2 fragment (residues 1–333) (UniProt P27986); assay: MST; Alexa647-labelled protein at 20 nM, the same protein unlabelled titrated from 50,000 nM in 1:1 dilutions; 20 mM sodium phosphate pH 8, 150 mM NaCl, 2 mM EDTA, 5 mM DTT; dimerization
[3] = target: p85α SH3-PR1-BH-PR2 fragment (residues 1–333) (UniProt P27986); assay: AUC; sedimentation equilibrium, 20°C, samples at 1.0, 0.5 and 0.25 mg/ml, 11.8, 12.8, 13.8 krpm; global fit to a monomer–dimer–tetramer model (p85α, 1–333) or a monomer–dimer model (PR1-BH); constant of dimerization (dimer to monomers); reducing conditions
[4] = target: the molecule itself; assay: MST; Alexa647-labelled protein at 20 nM, the same protein unlabelled titrated from 50,000 nM in 1:1 dilutions; 20 mM sodium phosphate pH 8, 150 mM NaCl, 2 mM EDTA, 5 mM DTT; dimerization
[5] = target: the molecule itself; assay: AUC; sedimentation equilibrium, 20°C, samples at 1.0, 0.5 and 0.25 mg/ml, 11.8, 12.8, 13.8 krpm; global fit to a monomer–dimer–tetramer model (p85α, 1–333) or a monomer–dimer model (PR1-BH); constant of dimerization (dimer to monomers); reducing conditions
p85α SH3 (residues 1–81) = target: T1, p85α SH3 (residues 1–81) (UniProt P27986 1-81); assay: ITC; MicroCal ITC200, 25°C, 10 mM sodium phosphate pH 7.5, 150 mM NaCl, 5 mM DTT; PR1 peptide injected into p85α SH3 (100 μM) in the cell, or SH3 (400 μM) in the syringe and GST-ΔSH3 p85α in the cell; conditions: both partners purified
T1 construct: p85α residues 1–81; pET28b
T1 sequence (P27986 1-81): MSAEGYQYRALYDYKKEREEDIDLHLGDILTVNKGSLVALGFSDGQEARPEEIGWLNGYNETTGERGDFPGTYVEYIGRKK

Fyn SH3 (Homo sapiens), sequence (P06241 79-146): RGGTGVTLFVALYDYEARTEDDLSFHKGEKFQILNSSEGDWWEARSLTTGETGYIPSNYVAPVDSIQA

p85α PR1 PR1 (from UniProt P27986)
Kd (Fyn SH3 (Homo sapiens)): 16 µM

p85α SH3 (residues 1–81) (from UniProt P27986 1-81) (domain or fragment)
Kd [1]: 16.8 µM
dH [1]: -3.2 kcal/mol
stoichiometry N [1]: 0.8

p85α SH3 SH3 (from UniProt P27986)
Kd (class I PXXP peptide): 40 µM

p85α SH3-PR1-BH-PR2 fragment (residues 1–333) (from UniProt P27986 1-333) (domain or fragment)
Kd [2]: 0.441 µM
Kd [3]: 0.53 µM

B1: p85α PR1-BH (residues 79–301) (domain or fragment, UniProt P27986 79-301, looked up)
chain: RKKISPPTPKPRPPRPLPVAPGSSKTEADVEQQALTLPDLAEQFAPPDIAPPLLIKLVEAIEKKGLECSTLYRTQSSSNLAELRQLLDCDTPSVDLEMIDVHVLADAFKRYLLDLPNPVIPAAVYSEMISLAPEVQSSEEYIQLLKKLIRSPSIPHQYWLTLQYLLKHFFKLSQTSSKNLLNARVLSEIFSPMLFRFSAASSDNTENLIKVIEILISTEWNER
modifications: Alexa647 label on the labelled copy (MST only)
notes: p85α residues 79–301; pET28b
Kd [4]: 22.3 µM and 23 µM
Kd [5]: 163 µM

B2: synthetic p85α PR1 peptide PKPRPPRPLPVAP (peptide)
peptide: PKPRPPRPLPVAP
notes: p85α PR1 region, begins at P87; source: synthetic peptide
Kd (p85α SH3 (residues 1–81)): 23.3 µM and 24 µM
dH (p85α SH3 (residues 1–81)): -1.17 kcal/mol
stoichiometry N (p85α SH3 (residues 1–81)): 1.06
